Experimental data as given in the supplement of paper PMC10567573.

B1: NP_006221.1 (parent)
chain: CQPISFSGFGAEDDDLGGLGLGP
B2: CDKN1A (parent)
chain: RRQTSMTDFYHSKRRLIFSKRKP

Variants of: B1
Assay: protein stability index of a GFP-peptide fusion (GPS, HEK-293T) (PSI 1-6); higher = more stable
Conditions: c terminus: native

Protein stability index: each site, then its substitutions
I4: F 2.12; N 2.45; D 2.48; P 2.2; T 2.47; C 2.43; R 2.08; W 2.25; A 2.17; E 2.41; G 2.29; M 2.21; Q 2.15; L 2.11; K 2.05; H 2.25; S 2.31; Y 2.09; V 2.54
C1: V 2.27; A 2.11; D 2.57; H 2.17; L 1.97; Q 2.37; T 2.14; R 2.31; K 2.06; S 2.17; M 2.34; E 2.53; W 1.91; G 2.41; I 2.12; P 2.33; Y 2.18; F 2.6; N 2.28
P3: H 2.06; R 2.06; K 2.05; D 2.2; Q 2.42; W 1.94; N 2.2; I 2.29; Y 2.01; M 2.15; S 2.37; L 2.1; A 2.19; E 2.46; C 2.12; F 1.94; T 2.09; G 2.3; V 2.14
S7: M 2.47; L 2.43; P 4.14; E 2.72; D 3.66; K 2.77; C 2.11; H 3.06; R 2.56; A 1.89; I 2.13; F 2.48; Y 2.6; G 2.87; N 3.37; W 2.42; V 2.07; T 2.19; Q 2.48
G8: C 1.96; F 2.39; E 2.03; D 2.05
Q2: I 2.16; K 2.22; N 2.31; F 1.99; A 1.98; Y 2.09; E 2.43; R 2.17; M 2.16; T 2.16; D 2.51; V 1.98; P 2.19; S 2.64; C 2.14; L 2.51; G 2.1; H 2.26; W 2.13
S5: F 2.29; P 2.42; A 2.77; Q 2.24; W 2.58; L 2.25; T 2.41; R 2.14; D 2.69; I 2.75; V 2.54; M 2.46; G 2.36; N 2.4; H 2.42; K 2.39; Y 2.25; C 2.16; E 2.99
F6: M 3.53; N 4.41; T 3.93; D 4.57; Y 2.52; V 3.43; L 3.5; K 4.18; E 4.72; I 3.63; S 3.93; G 4.16; Q 4.21; P 4.41; A 3.88; R 3.86; H 3.48; W 2.22; C 3.41

Variants of: B2
Assay: as above
Conditions: c terminus: native

Protein stability index, by site and new letter:
Y10: A 3.44; M 3.11; R 3.01; V 2.77; Q 2.75; I 2.79; W 2.66; T 3.41; E 2.83; N 1.72; P 2.22; K 1.57; C 1.4
K22: Q 2.42; N 3.35; A 1.72; D 1.85; Y 2.55; V 3.36; L 1.74; R 4.35; W 2.91; I 2.35; M 3.93; T 2.58; F 1.77; S 3.2
L16: T 2.17; C 2.32; S 2.86; P 3.36; H 2.87; F 3.4; Y 1.65; Q 2.53; G 3.3; K 2.21; M 1.54
F18: A 2.87; R 2.05; C 1.69; I 2.23; Q 1.79; D 3.34; L 1.65; S 3.17; V 2.3; K 2.26; Y 2.46; P 2.82; T 2.45; E 3.49; W 2.28
S19: N 1.85; Y 2.84; A 2.87; Q 2.08; H 1.53; I 2.54; K 1.91; T 1.77; P 2.08; F 2.44; M 2.96; L 2.33; R 2.46; W 1.71; D 1.43; C 2.57
R15: A 2.94; D 3.82; Y 2.23; M 3.54; P 2.52; L 2.47; Q 2.41; C 3.8; I 3; T 2.34
K20: N 1.03; F 2.31; A 2.73; P 1.54; R 2.21; V 2.1; Y 1.9; E 2.33; M 1.81; S 2.23
S12: M 2.75; P 2.31; W 2.39; A 2.99; C 2.98; F 1.59; I 3.96; N 3.42; Y 2.15; E 2.92; G 2.07; V 2.01
K13: W 2.83; S 3.39; G 1.81; N 2.55; Y 2.37; I 2.36; D 2.39; P 3.13; F 2.44; C 3.33; A 3; L 2.51; Q 1.8; V 2.27; H 1.75; T 2.31; E 3.4
P23: Y 3.15; D 2.49; M 2.46; V 2.57; K 2.95; L 2.84; A 1.85; I 2.74; G 2.48; W 3.55; F 2.76; C 3.15
I17: L 3.47; P 3.06; Y 2.76; S 2.99; M 3.71; T 2.63; A 2.48; K 1.86; E 3.68; G 1.79
H11: L 3.32; K 3.46; N 1.47; A 2.49; I 2.03; E 2.37; P 2.49; D 1.65; Y 1.66; S 2.69; Q 2.55; F 2.93; V 1.43; G 2.88
R21: S 3.09; N 2.79; F 2.03; M 3.37; T 3.55; C 3.54; Y 2.97; A 2.5; E 3.44; L 2.67; V 3.09; K 3.61; P 2.73; Q 2.4; I 4.52; G 3.01
D8: T 3.06; Y 1.55
R14: T 1.99; S 1.83; A 2.14; C 2.69; W 3.61; Q 4.01; K 4.64; H 4.02; M 3.31; N 2.75; E 3.86; L 3.27; I 2.18; D 2.81
F9: D 2.72; K 2.4; H 4.22; T 2.25; L 2.24; V 2.43; G 2.02; C 2.71; R 2.54; I 3.36; Y 3.43
